Reference: article PMC6901265 (2019)

Key:
[1] = target: T1, EBV BRLF1 peptide on HLA-A*02:01 (human); test: multimer staining
T1 peptide: YVLDHLIVV

[2] = target: T2, tyrosinase peptide on HLA-A*02:01 (human); test: activation reporter or marker
T2 peptide: YMDGTMSQV

B1: WT TCR AV8.1-CAVKDTDKLIF-AJ34 BV24.1-CATSDWDDSTGELFF-BJ2.2 (TCR)
alpha AV8.1 AJ34 CDR3: CAVKDTDKLIF
beta BV24.1 BJ2.2 CDR3: CATSDWDDSTGELFF
- binding result [1]: recognises
- binding result [2]: no recognition
